Tests used:
human ROR1 (on cells) [1] = target: T1, human ROR1 (on cells) (human, UniProt Q01973 30-937); experiment: flow cytometry competition on NCCIT cells: pre-treatment with titrated unlabelled scFv-Fc, then 146 nM 82H02 scFv-Fc labelled with Alexa Fluor 647-conjugated Zenon fragments
T1 construct: Entry given with its signal peptide; also called hROR1; huROR1

human ROR1 (on cells) [2] = target: T1, human ROR1 (on cells); experiment: flow cytometry, MDA-MB-231 cells; reference: Ref. Frz-binding TCE
Protocol: (§1) After washing twice with 200 μL of phosphate buffered saline (PBS) by centrifugation at 500×g for 5 minutes at room temperature, the cells were resuspended in 100 μL of Live/Dead fixable green working buffer (ThermoFisher Scientific, Cat No: L23101; one vial of Live/Dead fixable green powder was dissolved into 50 μL of DMSO and 1 μL of dissolved Live/Dead fixable green was added to 1 mL of PBS to prepare the working buffer). After 15-minutes of incubation at room temperature, the cells were washed twice with 200 μL of PBS by centrifugation at 500×g for 5 minutes at room temperature and resuspended in […] of 10% goat serum in BD staining buffer (BD Biosciences, Cat No: 554657). […] The plates were then covered with foil to avoid direct light and incubated for 60 minutes at 4° C. […] After incubating for 30 minutes at 4° C., the cells were washed twice with 200 μL of PBS by centrifugation at 500×g for 5 minutes at room temperature and resuspended into 100 μL of fixation buffer (BioLegend, Cat No: 420801). The samples were then analyzed on a flow cytometer for binding signal using FlowJo software. ROR and CD3 binding EC₅₀s (concentration vs mean fluorescence intensity (MFI)) for reference molecules and test bispecific TCEs were obtained using 4-parameter non-linear regression curve fitting in GraphPad Prism.

[3] = target: T2, cynomolgus CD3 (on cynomolgus pan-T cells) (cynomolgus, UniProt Q95LI5 22-198); experiment: flow cytometry, cynomolgus pan-T cells
T2 construct: whole, on cells
T2 sequence (Q95LI5 22-198): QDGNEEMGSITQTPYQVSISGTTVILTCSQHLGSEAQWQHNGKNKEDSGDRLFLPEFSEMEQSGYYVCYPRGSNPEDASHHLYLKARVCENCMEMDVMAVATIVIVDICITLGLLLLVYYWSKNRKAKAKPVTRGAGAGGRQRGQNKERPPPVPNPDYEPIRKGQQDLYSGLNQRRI
Protocol: as §1

[4] = target: T3, human CD3 (on Jurkat T cells or human CD8+ T cells) (human, UniProt P07766 23-207; P09693 23-182; P04234 22-171; P20963 22-164); experiment: flow cytometry, Jurkat T cells
T3 construct: Entries are printed with signal peptides; also called huCD3; CD3ε
T3 sequence (P07766 23-207 limits assumed, chain 1 of 4): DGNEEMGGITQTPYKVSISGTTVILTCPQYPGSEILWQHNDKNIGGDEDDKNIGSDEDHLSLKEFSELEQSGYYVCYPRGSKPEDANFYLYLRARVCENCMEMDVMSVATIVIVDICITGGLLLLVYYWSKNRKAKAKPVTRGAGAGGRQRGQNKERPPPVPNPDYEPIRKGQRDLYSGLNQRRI
T3 sequence (P09693 23-182 limits assumed, chain 2 of 4): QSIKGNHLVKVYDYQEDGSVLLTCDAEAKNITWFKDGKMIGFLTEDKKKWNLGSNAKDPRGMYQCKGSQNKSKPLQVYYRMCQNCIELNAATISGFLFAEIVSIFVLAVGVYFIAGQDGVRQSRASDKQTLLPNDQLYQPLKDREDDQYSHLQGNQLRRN
T3 sequence (P04234 22-171 limits assumed, chain 3 of 4): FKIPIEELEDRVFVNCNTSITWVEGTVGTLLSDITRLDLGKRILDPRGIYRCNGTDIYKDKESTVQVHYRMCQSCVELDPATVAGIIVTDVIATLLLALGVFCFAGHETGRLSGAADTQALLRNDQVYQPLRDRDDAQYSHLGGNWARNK
T3 sequence (P20963 22-164 limits assumed, chain 4 of 4): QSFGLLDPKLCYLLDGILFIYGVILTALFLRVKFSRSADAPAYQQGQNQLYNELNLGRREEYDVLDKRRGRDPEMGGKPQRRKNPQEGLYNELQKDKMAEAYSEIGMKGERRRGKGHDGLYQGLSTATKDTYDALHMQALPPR
Protocol: as §1

human ROR1 (on cells) [5] = target: T1, human ROR1 (on cells); experiment: cell-based or functional assay
human ROR1 (on cells) [6] = target: T1, human ROR1 (on cells); experiment: flow cytometry, MDA-MB-231 cells
Protocol: as §1

human ROR1 (on cells) [7] = target: T1, human ROR1 (on cells); experiment: cell-based or functional assay; remark: listed apart in the source
human ROR1 (on cells) [8] = target: T1, human ROR1 (on cells); experiment: cell-based or functional assay; remark: listed apart in the source
human ROR1 (on cells) [9] = target: T1, human ROR1 (on cells); experiment: cell-based or functional assay; remark: listed apart in the source
[10] = target: T3, human CD3 (on Jurkat T cells or human …); experiment: flow cytometry; reference: 69A02 TCE in Format 1A
Protocol: The plates were then covered with foil to avoid direct light and incubated for 60 minutes at 4° C. […] After incubating for 30 minutes at 4° C., the cells were washed twice with 200 μL of PBS by centrifugation at 500×g for 5 minutes at room temperature and resuspended into 100 μL of fixation buffer (BioLegend, Cat No: 420801). The samples were then analyzed on a flow cytometer for binding signal using FlowJo software. ROR and CD3 binding EC₅₀s (concentration vs mean fluorescence intensity (MFI)) for reference molecules and test bispecific TCEs were obtained using 4-parameter non-linear regression curve fitting in GraphPad Prism.

B1: 82H02 scFv-Fc (Fc fusion)
VH: EVQLLESGGGLVQPGGSLRLSCAASGFTFTSYAMSWVRQAPGKGLEWVSTISGSGGGTYYTDSVKGRFTISRDNSKNTLYLQMNSLRAEDTAVYYCAQGSSIFDYWGQGTLVTVSS
VL: EIVLTQSPATLSLSPGERATLSCRASQSVSSYLAWYQQKPGQAPRLLIYDASNRATGIPARFSGSGSGTDFTLTISSLEPEDFAVYYCQQRSNWPPCTFGQGTRLEIK
notes: scFv-Fc format; also called unlabelled 82H02 scFv-Fc
IC50 (read off the curve) (human ROR1 (on cells) [1]): ~2 nM

B2: bispecific TCE 69A02 in Format 1A (bispecific antibody)
heavy 1: EVQLVESGGGLVQPGGSLRLSCAASGFTFNTYAMNWVRQAPGKGLEWVARIRSKYNNYATYYADSVKDRFTISRDDSKNTLYLQMNSLRAEDTAVYYCVRHGNFGNSYVSWFAYWGQGTMVTVSSASTKGPSVFPLAPSSKSTSGGTAALGCLVKDYFPEPVTVSWNSGALTSGVHTFPAVLQSSGLYSLSSVVTVPSSSLGTQTYICNVNHKPSNTKVDKKVEPKSCDKTHTCPPCPAPPVAGPSVFLFPPKPKDTLMISRTPEVTCVVVDVSHEDPEVKFNWYVDGVEVHNAKTKPREEQYNSTYRVVSVLTVLHQDWLNGKEYKCAVSNKALAAPIEKTISKAKGQPFRPEVHLLPPSREEMTKNQVSLTCLARGFYPKDIAVEWESNGQPENNYKTTPSRQEPSQGTTTFAVTSKLTVDKSRWQQGNVFSCSVMHEALHNHYTQKTISLSPGK
heavy 2: ETTLTQSPATLSVSPGETATLSCRASQSVSSNLAWYQQKPGQAPRLLIYGASTRATGIPATFSGSGSGTEFTLTISSLQSEDFAIYYCQQYKNWPPAFGGGTELEIKGGGGSGGGGSGGGGSGGGGSQVTLKESGPTLVKPTQTLTLTCSFSGFSITTSGVSVGWIRQPPGKALEWLALIYWDDDKRYSPSLKSRLTITRDTSKNQVVLTMTNMDPVDTATYYCAHAPRYTPGGYFDYWGQGTLVTVSSEPKSSDKTHTCPPCPAPPVAGPSVFLFPPKPKDTLMISRTPEVTCVVVDVSHEDPEVKFNWYVDGVEVHNAKTKPREEQYNSTYRVVSVLTVLHQDWLNGKEYKCAVSNKALAAPIEKTISKAKGQPREPQVYTLPPPSEELALNELVTLTCLVKGFYPSDIAVEWLQGSQELPREKYLTWAPVLDSDGSFFLYSILRVAAEDWKKGDTFSCSVMHEALHNRFTQKSLDRSPGKGGGGSGGGGSGGGGSGGGGSETTLTQSPATLSVSPGETATLSCRASQSVSSNLAWYQQKPGQAPRLLIYGASTRATGIPATFSGSGSGTEFTLTISSLQSEDFAIYYCQQYKNWPPAFGGGTELEIKGGGGSGGGGSGGGGSGGGGSQVTLKESGPTLVKPTQTLTLTCSFSGFSITTSGVSVGWIRQPPGKALEWLALIYWDDDKRYSPSLKSRLTITRDTSKNQVVLTMTNMDPVDTATYYCAHAPRYTPGGYFDYWGQGTLVTVSS
light: QAVVTQEPSLTVSPGGTVTLTCRSSTGAVTTSNYANWVQQKPGQAPRGLIGGTNKRAPGTPARFSGSLLGGKAALTLSGVQPEDEAEYYCALWYSNLWVFGGGTKLTVLGQPKAAPSVTLFPPSSEELQANKATLVCLISDFYPGAVTVAWKADSSPVKAGVETTTPSKQSNNKYAASSYLSLTPEQWKSHRSYSCQVTHEGSTVEKTVAPTECS
notes: also called 69A02 TCE 1A; 69A02x1F3.5
fold higher apparent binding affinity (human ROR1 (on cells) [2]): > 30 fold | EC50 [3]: 13.4 nM | EC50 [4]: 10.4 nM | EC50 of target cell killing (TDCC), human CD8+ T cells + ROR1+ MDA-MB-231 (human ROR1 (on cells) [5]): 20.2 pM | EC50 (human ROR1 (on cells) [6]): 0.23 nM | TDCC EC50, PBMCs + ROR1+ MDA-MB-231 cells (human ROR1 (on cells) [7]): 19.4 pM | EC50 of IFNγ release, human CD8+ T cells + ROR1+ MDA-MB-231 (human ROR1 (on cells) [8]): 21.5 pM | IFNγ release EC50, PBMCs + ROR1+ MDA-MB-231 cells (human ROR1 (on cells) [9]): 87.6 pM

B3: bispecific TCE 69A02 in Format 1B (bispecific antibody)
heavy 1: ETTLTQSPATLSVSPGETATLSCRASQSVSSNLAWYQQKPGQAPRLLIYGASTRATGIPATFSGSGSGTEFTLTISSLQSEDFAIYYCQQYKNWPPAFGGGTELEIKGGGGSGGGGSGGGGSGGGGSQVTLKESGPTLVKPTQTLTLTCSFSGFSITTSGVSVGWIRQPPGKALEWLALIYWDDDKRYSPSLKSRLTITRDTSKNQVVLTMTNMDPVDTATYYCAHAPRYTPGGYFDYWGQGTLVTVSSEPKSSDKTHTCPPCPAPPVAGPSVFLFPPKPKDTLMISRTPEVTCVVVDVSHEDPEVKFNWYVDGVEVHNAKTKPREEQYNSTYRVVSVLTVLHQDWLNGKEYKCAVSNKALAAPIEKTISKAKGQPFRPEVHLLPPSREEMTKNQVSLTCLARGFYPKDIAVEWESNGQPENNYKTTPSRQEPSQGTTTFAVTSKLTVDKSRWQQGNVFSCSVMHEALHNHYTQKTISLSPGKGGGGSGGGGSGGGGSGGGGSEVQLVESGGGLVQPGGSLRLSCAASGFTFNTYAMNWVRQAPGKGLEWVARIRSKYNNYATYYADSVKDRFTISRDDSKNTLYLQMNSLRAEDTAVYYCVRHGNFGNSYVSWFAYWGQGTMVTVSSASTKGPSVFPLAPSSKSTSGGTAALGCLVKDYFPEPVTVSWNSGALTSGVHTFPAVLQSSGLYSLSSVVTVPSSSLGTQTYICNVNHKPSNTKVDKKVEPKSS
heavy 2: ETTLTQSPATLSVSPGETATLSCRASQSVSSNLAWYQQKPGQAPRLLIYGASTRATGIPATFSGSGSGTEFTLTISSLQSEDFAIYYCQQYKNWPPAFGGGTELEIKGGGGSGGGGSGGGGSGGGGSQVTLKESGPTLVKPTQTLTLTCSFSGFSITTSGVSVGWIRQPPGKALEWLALIYWDDDKRYSPSLKSRLTITRDTSKNQVVLTMTNMDPVDTATYYCAHAPRYTPGGYFDYWGQGTLVTVSSEPKSSDKTHTCPPCPAPPVAGPSVFLFPPKPKDTLMISRTPEVTCVVVDVSHEDPEVKFNWYVDGVEVHNAKTKPREEQYNSTYRVVSVLTVLHQDWLNGKEYKCAVSNKALAAPIEKTISKAKGQPREPQVYTLPPPSEELALNELVTLTCLVKGFYPSDIAVEWLQGSQELPREKYLTWAPVLDSDGSFFLYSILRVAAEDWKKGDTFSCSVMHEALHNRFTQKSLDRSPGK
light: QAVVTQEPSLTVSPGGTVTLTCRSSTGAVTTSNYANWVQQKPGQAPRGLIGGTNKRAPGTPARFSGSLLGGKAALTLSGVQPEDEAEYYCALWYSNLWVFGGGTKLTVLGQPKAAPSVTLFPPSSEELQANKATLVCLISDFYPGAVTVAWKADSSPVKAGVETTTPSKQSNNKYAASSYLSLTPEQWKSHRSYSCQVTHEGSTVEKTVAPTECS
notes: also called 69A02 TCE 1B; 1B_69A02x1F3.5 (1B)
fold lower apparent binding affinity [10]: ~4 fold | fold higher apparent binding affinity (human ROR1 (on cells) [2]): > 30 fold | EC50 [3]: 17.6 nM | EC50 [4]: 35.9 nM | EC50 of target cell killing (TDCC), human CD8+ T cells + ROR1+ MDA-MB-231 (human ROR1 (on cells) [5]): 35.6 pM | EC50 (human ROR1 (on cells) [6]): 0.43 nM | TDCC EC50, PBMCs + ROR1+ MDA-MB-231 cells (human ROR1 (on cells) [7]): 48 pM | EC50 of IFNγ release, human CD8+ T cells + ROR1+ MDA-MB-231 (human ROR1 (on cells) [8]): 28.9 pM | IFNγ release EC50, PBMCs + ROR1+ MDA-MB-231 cells (human ROR1 (on cells) [9]): 2090 pM

Reference: US20240343800A1 (Merck KGaA, published 2024)
